The source of these data is patent CN112062844A (SHANDONG BOAN BIOTECHNOLOGY CO LTD, dated 2020).

As usually defined, the Kd is the constant that tells how readily two partners part at equilibrium. Low values mean higher affinity, high ones lower affinity. For orientation: koff means the first-order rate constant of dissociation. A word on the kon: it is a measure of how fast the partners come together. Read a low kon as slow association. One may read the EC50 as the concentration that produces a half-maximal response. A higher EC50 goes with a less potent agent.

Assay [1] has as its target T1, ANGPTL3蛋白(10770-H08B，义翘神州) (UniProt Q9Y5C1 17-460).
T1 construct: Bought protein; also called 血管生成素样蛋白3; 抗原ANGPTL3
T1 sequence (looked up): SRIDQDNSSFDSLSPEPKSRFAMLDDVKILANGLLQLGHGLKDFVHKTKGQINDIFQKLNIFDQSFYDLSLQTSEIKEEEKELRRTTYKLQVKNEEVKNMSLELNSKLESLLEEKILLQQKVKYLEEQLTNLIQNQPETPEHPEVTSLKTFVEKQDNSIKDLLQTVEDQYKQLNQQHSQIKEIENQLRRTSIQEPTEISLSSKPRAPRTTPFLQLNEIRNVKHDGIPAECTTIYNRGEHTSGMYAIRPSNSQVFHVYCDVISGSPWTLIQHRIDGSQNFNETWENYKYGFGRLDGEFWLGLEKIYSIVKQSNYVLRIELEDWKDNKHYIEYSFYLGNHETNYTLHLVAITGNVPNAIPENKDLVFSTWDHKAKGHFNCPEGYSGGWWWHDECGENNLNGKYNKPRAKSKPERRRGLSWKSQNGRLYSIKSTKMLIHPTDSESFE
The experiment in a line: SPR, BIAcore 8K, antibody captured by anti-human IgG Fc on CM5, ANGPTL3 as analyte, 1:1 model.

For assay [2], the target named is T1, ANGPTL3蛋白(10770-H08B，义翘神州). The experiment in a line: ELISA, ANGPTL3 coated at graded concentrations (0.2-0 μg/mL), antibody 1 μg/mL, OD450. (In general: ELISA stands for enzyme-linked immunosorbent assay.)
In assay [3] the target is T1, ANGPTL3蛋白(10770-H08B，义翘神州). The experiment in a line: cell-based or functional assay.

B1: AP-REGN-IgG4 (antibody, V domains shown)
VH: EVQLVESGGGVIQPGGSLRLSCAASGFTFDDYAMNWVRQGPGKGLEWVSAISGDGGSTYYADSVKGRFTISRDNSKNSLYLQMNSLRAEDTAFFYCAKDLRNTIFGVVIPDAFDIWGQGTMVTVSS
VL: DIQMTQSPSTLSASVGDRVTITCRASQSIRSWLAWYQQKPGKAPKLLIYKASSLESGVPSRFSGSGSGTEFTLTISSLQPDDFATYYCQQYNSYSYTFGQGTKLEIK
notes: IgG4 by its name; also called Evinacumab; evinacumab
B1: in assay [1], binding was characterised by a dissociation constant (Kd) of 452 pM, the koff turned out to be 0.000275 s⁻¹ and the kon was found to be 609000 M⁻¹ s⁻¹. Besides, in assay [2], the EC50 is 0.162 µg/mL. Further, in assay [3], the “酶活检测EC50 (LPL, DGGR底物, 荧光值)” value is 95.1 µg/mL.
